Results: patent US20120021995A1 (published 2012)
Changes are numbered by the printed parent chain.

B1: 29p61P1E11 (designed binder)
chain: EPPTQKPKKIVNAKKDVVNTKMFEELKSRLDTLAQEVALLKEQQALQTVCLKGTKVHMKCFLAFTQTKTFHEASEDCISRGGTLSTPQTGSENDALYEYLRQSVGNEAEIWLGLNGWLEGVGWVDMTGARIAYKNWETEITAQPDGGWPFSNENCAVLSGAANGKWFDKRCRDQLPYICQFGIV
notes: ATRIMER; also called 029-61.1E11
B2: 119p83P1H4 (designed binder)
chain: B1 chain with E137S, T138K, E139V, I140R, T141L, A142E
notes: ATRIMER from pANA19
B3: 119p94P1F4 (designed binder)
chain: B1 chain with E137A, T138A, E139V, I140T, T141M, A142E
notes: ATRIMER from pANA19
B4: 119p94P1B5 (designed binder)
chain: B1 chain with E137A, T138R, E139H, T141N, A142E
notes: ATRIMER from pANA19
B5: 119p94P1C1 (designed binder)
chain: B1 chain with E137A, T138I, E139S, I140D, T141E, A142R
notes: ATRIMER from pANA19
B6: 119p83P1H1 (designed binder)
chain: B1 chain with E137T, T138Q, E139R, I140H, T141S, A142G
notes: ATRIMER from pANA19
B7: 119p94P1G7 (designed binder)
chain: B1 chain with E137G, T138W, E139S, I140A, T141R, A142V
notes: ATRIMER from pANA19
B8: 119p94P1D8 (designed binder)
chain: B1 chain with E137G, T138W, E139M, I140D, T141S, A142K
notes: ATRIMER from pANA19
B9: 119p94P1B4 (designed binder)
chain: B1 chain with E137A, T138E, E139V, I140P, T141F, A142F
notes: ATRIMER from pANA19
B10: 014-42.3B8 (designed binder)
chain: B1 chain with W148E, P149H, F150W, S151G, N152W
notes: ATRIMER; also called 14p42P3B8
B11: 014-42.3D11 (designed binder)
chain: B1 chain with V121A, P149H, F150W, S151R, N152W
notes: ATRIMER
B12: 014-42.3D10 (designed binder)
chain: B1 chain with W117Y, V121Y, W148A, P149T, F150I, S151A, N152W
notes: ATRIMER
B13: 71p88P1G4 (designed binder)
chain: B1 chain with W117Y, L118M, E119T, W148R, P149S, F150W, S151K, N152W
B14: 71p88P1F2 (designed binder)
chain: B1 chain with V121S, W148F, F150A, S151R, N152W
B15: 71p88P1G1 (designed binder)
chain: B1 chain with L118M, W148P, F150W, S151R, N152W
B16: 71p88P1A3 (designed binder)
chain: B1 chain with W117Y, E119A, V121T, W148R, P149V, F150L, S151A, N152W
B17: 71p88P1B3 (designed binder)
chain: B1 chain with V121S, W148V, P149Q, F150W, S151R, N152W
B18: 142p62P1A2 (designed binder)
chain: EPPTQKPKKIVNAKKDVVNTKMFEELKSRLDTLAQEVALLKEQQALQTVCLKGTKVHMKCFLAFTQTKTFHEASEDCISRGGTLSTPQTGSENDALYEYLRQSVGNEAEIWLGLNGWLEGSGWVDMTGARIAYKNWGDQRLAQPDGGVQWRWENCAVLSGAANGKWFDKRCRDQLPYICQFGIV
B19: 65p114P1B2 (designed binder)
chain: B18 chain with G137F, D138H, Q139D, L141F, A142N
B20: 142p62P1G2 (designed binder)
chain: B18 chain with G137A, Q139E, L141F, A142L
B21: 65p114P1A3 (designed binder)
chain: B18 chain with G137A, Q139P, R140K, L141W, A142S
B22: 142p72P1C9 (designed binder)
chain: B18 chain with Q139P, L141W, A142S
B23: 029-15.A8G (designed binder)
chain: EPPTQKPKKIVNAKKDVVNTKMFEELKSRLDTLAQEVALLKEQQALQTVCLKGTKVHMKCFLAFTQTKTFHEASEDCISRGGTLSTPQTGSENDALYEYLRQSVGNEAEIWLGLNRAWLRPRWVDMTGARIAYKNWETEITAQPDGGTLVSGENCAVLSGAANGKWFDKRCRDQLPYICQFGIV
notes: ATRIMER; also called 1a7b
B24: 029-15.B9F (designed binder)
chain: EPPTQKPKKIVNAKKDVVNTKMFEELKSRLDTLAQEVALLKEQQALQTVCLKGTKVHMKCFLAFTQTKTFHEASEDCISRGGTLSTPQTGSENDALYEYLRQSVGNEAEIWLGLNKRVWYRGWVDMTGARIAYKNWETEITAQPDGGMRRRRENCAVLSGAANGKWFDKRCRDQLPYICQFGIV
notes: ATRIMER; also called 2a1a
B25: 029-15.B3D (designed binder)
chain: B24 chain with K116E, R117L, V118R, W119T, Y120D, R121G, G122L, M148V, R149M, R152S
notes: ATRIMER; also called 9b3d
B26: 029-15.A3C (designed binder)
chain: EPPTQKPKKIVNAKKDVVNTKMFEELKSRLDTLAQEVALLKEQQALQTVCLKGTKVHMKCFLAFTQTKTFHEASEDCISRGGTLSTPQTGSENDALYEYLRQSVGNEAEIWLGLNRATLRPRWVDMTGARIAYKNWETEITAQPDGGKNCAVLSGAANGKWFDKRCRDQLPYICQFGIV
notes: ATRIMER; also called 4a8c

target: T1, DR4 (TRAIL-R1) on cancer cells (human, UniProt O00220 24-468); test: cell-based or functional assay
T1 sequence: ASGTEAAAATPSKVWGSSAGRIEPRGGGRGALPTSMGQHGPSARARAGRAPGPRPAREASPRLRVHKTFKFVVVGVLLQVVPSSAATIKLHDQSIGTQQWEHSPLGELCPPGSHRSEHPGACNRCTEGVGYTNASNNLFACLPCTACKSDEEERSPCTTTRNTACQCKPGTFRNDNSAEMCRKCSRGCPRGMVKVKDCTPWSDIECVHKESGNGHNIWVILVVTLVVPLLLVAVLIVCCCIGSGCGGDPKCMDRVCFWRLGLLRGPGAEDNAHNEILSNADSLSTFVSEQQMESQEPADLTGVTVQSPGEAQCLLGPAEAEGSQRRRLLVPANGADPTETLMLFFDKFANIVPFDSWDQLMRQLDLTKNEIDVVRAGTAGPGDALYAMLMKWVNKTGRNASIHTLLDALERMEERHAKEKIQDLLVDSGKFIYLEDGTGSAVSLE

Row | Binder | ED50 (nM) ST486 (cell killing)
1 | B1 | 217 nM
2 | B2 | 0.13 nM
3 | B3 | 308 nM
4 | B4 | 6.6 nM
5 | B5 | 251 nM
6 | B6 | 13 nM
7 | B7 | 25.5 nM
8 | B8 | 30.5 nM
9 | B9 | 127 nM

target: T2, recombinant human TRAIL R1 (DR4)/Fc chimera (human, UniProt O00220 24-239); test: SPR (Biacore), DR4-Fc captured by anti-Fc, ATRIMER analyte; apparent
T2 construct: bought (R&D Systems); not shown: Fc of the bought chimera (R&D Systems)
T2 sequence: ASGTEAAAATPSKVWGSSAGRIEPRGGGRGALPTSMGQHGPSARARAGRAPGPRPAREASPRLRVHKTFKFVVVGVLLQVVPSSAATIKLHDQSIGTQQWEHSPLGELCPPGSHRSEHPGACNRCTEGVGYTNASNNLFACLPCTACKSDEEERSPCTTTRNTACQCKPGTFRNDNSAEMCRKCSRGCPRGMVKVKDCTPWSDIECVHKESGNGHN
Protocol: (§1) Immobilization of an anti-human IgG Fc antibody (Biacore) to the CM5 chip (Biacore) was performed using standard amine coupling chemistry and this surface was used to capture recombinant human DR4 or DR5 receptor Fc fusion protein (R&D Systems). ATRIMER™ dilutions (1-500 nM) were injected over the DR4 and DR5 receptor surface at 30 μl/min and kinetic constants were derived from the sensorgram data using the Biaevaluation software (version 3.1, Biacore). Data collection was 3 minutes for the association and 5 minutes for dissociation. The anti-human IgG surface was regenerated with a 30 s pulse of 3 M magnesium chloride. All sensorgrams were double-referenced against an activated and blocked flow-cell as well as buffer injections.

Row | Binder | Ka | Kd | koff | kon
10 | B10 | 1.11e+08 M⁻¹ | 9.01 nM | 0.00101 s⁻¹ | 112000 M⁻¹ s⁻¹
11 | B11 | 2.53e+07 M⁻¹ | 39.5 nM | 0.000526 s⁻¹ | 13300 M⁻¹ s⁻¹
12 | B12 | 6.58e+06 M⁻¹ | 152 nM | 0.00185 s⁻¹ | 12200 M⁻¹ s⁻¹

target: T1, DR4 (TRAIL-R1) on cancer cells; test: cell-based or functional assay; remark: another data set of the same source

Row | Binder | ED50 ST486 (cell killing)
13 | B1 | 217 nM
14 | B13 | 75 nM
15 | B14 | 168 nM
16 | B15 | 80 nM
17 | B16 | 170 nM
18 | B17 | 3.2 nM

target: T1, DR4 (TRAIL-R1) on cancer cells; test: cell-based or functional assay; remark: another data set of the same source

Row | Binder | EC50 Colo205 (cell killing) | EC50 ST486 (cell killing)
19 | B18 | 0.39 nM | 0.3 nM
20 | B19 | 0.18 nM | 0.09 nM
21 | B20 | 0.32 nM | 0.2 nM
22 | B21 | 0.11 nM | 0.05 nM
23 | B22 | 0.18 nM | 0.03 nM

target: T3, recombinant human TRAIL R2 (DR5)/Fc chimera (human, UniProt O14763 54-182); test: SPR (Biacore), DR5-Fc captured by anti-Fc, ATRIMER analyte; apparent
T3 construct: bought (R&D Systems); not shown: Fc of the bought chimera (R&D Systems)
Protocol: as §1

Row | Binder | Ka | Kd | koff | kon
24 | B23 | 6.43e+07 M⁻¹ | 15.6 nM | 0.000629 s⁻¹ | 40500 M⁻¹ s⁻¹
25 | B24 | 2.38e+07 M⁻¹ | 42.8 nM | 0.00184 s⁻¹ | 43800 M⁻¹ s⁻¹
26 | B25 | 1.11e+06 M⁻¹ | 899 nM | 0.000104 s⁻¹ | 116 M⁻¹ s⁻¹
27 | B26 | 1.74e+08 M⁻¹ | 5.74 nM | 0.000362 s⁻¹ | 63000 M⁻¹ s⁻¹

target: T2, recombinant human TRAIL R1 (DR4)/Fc …; test: SPR (Biacore), ATRIMER
Protocol: as §1
Clones were then sub-cloned into pANA19 for expression and purification as described above. Cell killing activity was measured as described above, and binding affinity was measured by Biacore.

Row | Binder | Kd | koff | kon
28 | B1 | 3.2 nM | 0.000302 s⁻¹ | 93800 M⁻¹ s⁻¹
29 | B2 | 0.16 nM | 2.21e-05 s⁻¹ | 138000 M⁻¹ s⁻¹
30 | B3 | 2.96 nM | 0.000892 s⁻¹ | 125000 M⁻¹ s⁻¹
31 | B4 | 1.11 nM | 0.000406 s⁻¹ | 360000 M⁻¹ s⁻¹
32 | B5 | 1.85 nM | 0.000571 s⁻¹ | 141000 M⁻¹ s⁻¹
33 | B6 | 1.42 nM | 0.000329 s⁻¹ | 221000 M⁻¹ s⁻¹
34 | B7 | 2.41 nM | 0.0007 s⁻¹ | 349000 M⁻¹ s⁻¹
35 | B8 | 1.31 nM | 0.000542 s⁻¹ | 400000 M⁻¹ s⁻¹
36 | B9 | 2.82 nM | 0.00052 s⁻¹ | 185000 M⁻¹ s⁻¹

target: DR5 (TRAIL-R2) on cancer cells (human, UniProt O14763 56-440); test: cell-based or functional assay

Row | Binder | % cell death of H2122 and A2780 cells, 20 µg/mL, 20 h
37 | B23 | > 50%
38 | B26 | > 50%

target: T1, DR4 (TRAIL-R1) on cancer cells; test: cell-based or functional assay; remark: another data set of the same source

Row | Binder | Colo205 % killing (% of TRAIL activity) | H2122 % killing (% of TRAIL activity) | ST486 % killing (% of TRAIL activity)
39 | B13 | 24% | 5% | 75%
40 | B14 | -18% | -5% | 58%
41 | B15 | 12% | 0% | 78%
42 | B16 | -7% | -3% | 41%
43 | B17 | 42% | 0% | 88%
